Measurements taken from PMC2733758 (The Journal of Cell Biology, 2009).

Target: T1, GST∷CED-9(R211E, N212G) (C. elegans, UniProt P41958 1-280, R211E | N212G)
T1 sequence (looked up): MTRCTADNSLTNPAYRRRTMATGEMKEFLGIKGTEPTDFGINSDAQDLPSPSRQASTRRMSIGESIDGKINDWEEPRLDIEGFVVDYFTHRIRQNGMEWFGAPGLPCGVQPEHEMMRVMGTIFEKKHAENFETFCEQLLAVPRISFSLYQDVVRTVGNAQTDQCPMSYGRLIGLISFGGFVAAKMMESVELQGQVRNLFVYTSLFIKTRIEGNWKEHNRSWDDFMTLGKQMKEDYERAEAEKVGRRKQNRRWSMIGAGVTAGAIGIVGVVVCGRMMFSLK
Test: pull-down

- fold lower affinity than wild-type CED-9: 3 fold
B1: in vitro-translated, [35S]methionine-labeled FZO-1 protein (natural protein, C. elegans, UniProt Q23424 1-774, looked up)
chain: MSGTASLVHTLPASGDSNHRGLHSLKNSRRAADNEPLLRFREAKKVLGDVYGELKDNVAELEGVYKDIKENDFVSSEQREEIEAIGDSIKTIMDTFQRDNMKVVFFGRTSNGKSTTINAMLHEKVLPQGMGHTTCCFLQVEGSEGEVGHLQLDDNPQKIDMKMLGKIGHALSDENSDLPAMGQDSLLKVFHPKKSESGECRLLQNDVVILDSPGVDLSPEFDSWIDKHCLDADVFVLVSNAESTLTQAEKNFFLRVAKKLSKPNVFILNNRWDASAAETENIEDVKKQHLTRFRQFLVDELEVCSEREVNDRIFFVSSREVLESRLKARGLVQKAYQAEGHGTRALEFQNFERHFEHCISRSAIHTKFEAHNRRAHEMIGKMRLNLNSVLTSAAEQRSKLQNNLNESTRTFNECRVNFTQFEKAYREQTEQLRAEVHLKVSADFFEEIARLDAIIDRFEQPFDGSSSGMTKYKEDLAIFVDKCLSSDLEARCTGGLMSRIWNLENDMFQYVTKILAEPYQNKLEEVWRYRAPFKFSICVDVPALVNDFHEDLEFRFTFGLHAIIRRIIAYRSGQPVTAINTNLLTPLSLKQQSEKNSVRDAEASAASEEQAMMTQMVLTSAAFLANGSLGVLVVGGIVYKAVGWRVIAVGGAAYAGLYAWERMRWNSGAKEQHLKEQFRSHLAARMQQVSTAHTHHCETQAIREMDQVFDGLKATVGGVHREMKNDLDVQKTQIDAVDSTIRTLGTIKGKAVFLLRNLEQFASSYLRSDSPPTP
modifications: [35S]methionine-labeled
